Laboratory results reported in US20260001928A1 (CORTERIA PHARMACEUTICALS, priority 2022, published 2026).
*1 amine or outer side, *2 acyl side, *3 side chain or, on linkers, in order; H or OH if unused. Where no end group is shown, it is not given here. Side-chain parts run from the residue outwards. [ ]: non-standard residue; d: D form. The star is where a group is joined. C20 diacid = O=C(O)CCCCCCCCCCCCCCCCCCC(=O)*; γGlu = O=C(O)[C@H](CCC(=O)[*:2])N[*:1]; NMeI = CC[C@H](C)[C@H](NC)C(=O)O; AEEA = NCCOCCOCC(=O)O; Aib = CC(C)(N)C(=O)O

B1: SEQ ID NO 236 (peptide)
peptide: Ac-IVLSLD[dV]PIKLK([AEEA-AEEA-γGlu-C20 diacid])KILLEQEKQKEQREQAETN[Aib]QILAQV-NH2
SMILES: CC[C@H](C)[C@H](NC(C)=O)C(=O)N[C@H](C(=O)N[C@@H](CC(C)C)C(=O)N[C@@H](CO)C(=O)N[C@@H](CC(C)C)C(=O)N[C@@H](CC(=O)O)C(=O)N[C@@H](C(=O)N1CCC[C@H]1C(=O)N[C@H](C(=O)N[C@@H](CCCCN)C(=O)N[C@@H](CC(C)C)C(=O)N[C@@H](CCCCNC(=O)COCCOCCNC(=O)COCCOCCNC(=O)CC[C@H](NC(=O)CCCCCCCCCCCCCCCCCCC(=O)O)C(=O)O)C(=O)N[C@@H](CCCCN)C(=O)N[C@H](C(=O)N[C@@H](CC(C)C)C(=O)N[C@@H](CC(C)C)C(=O)N[C@@H](CCC(=O)O)C(=O)N[C@@H](CCC(N)=O)C(=O)N[C@@H](CCC(=O)O)C(=O)N[C@@H](CCCCN)C(=O)N[C@@H](CCC(N)=O)C(=O)N[C@@H](CCCCN)C(=O)N[C@@H](CCC(=O)O)C(=O)N[C@@H](CCC(N)=O)C(=O)N[C@@H](CCCNC(=N)N)C(=O)N[C@@H](CCC(=O)O)C(=O)N[C@@H](CCC(N)=O)C(=O)N[C@@H](C)C(=O)N[C@@H](CCC(=O)O)C(=O)N[C@H](C(=O)N[C@@H](CC(N)=O)C(=O)NC(C)(C)C(=O)N[C@@H](CCC(N)=O)C(=O)N[C@H](C(=O)N[C@@H](CC(C)C)C(=O)N[C@@H](C)C(=O)N[C@@H](CCC(N)=O)C(=O)N[C@H](C(N)=O)C(C)C)[C@@H](C)CC)[C@@H](C)O)[C@@H](C)CC)[C@@H](C)CC)C(C)C)C(C)C
B2: SEQ ID NO 237 (peptide)
peptide: [NMeI]VLSLD[dV]PIKLK([AEEA-AEEA-γGlu-C20 diacid])KILLEQEKQKEQREQAETN[Aib]QILAQV-NH2
modifications: N-terminus assumed
SMILES: CC[C@H](C)[C@H](NC)C(=O)N[C@H](C(=O)N[C@@H](CC(C)C)C(=O)N[C@@H](CO)C(=O)N[C@@H](CC(C)C)C(=O)N[C@@H](CC(=O)O)C(=O)N[C@@H](C(=O)N1CCC[C@H]1C(=O)N[C@H](C(=O)N[C@@H](CCCCN)C(=O)N[C@@H](CC(C)C)C(=O)N[C@@H](CCCCNC(=O)COCCOCCNC(=O)COCCOCCNC(=O)CC[C@H](NC(=O)CCCCCCCCCCCCCCCCCCC(=O)O)C(=O)O)C(=O)N[C@@H](CCCCN)C(=O)N[C@H](C(=O)N[C@@H](CC(C)C)C(=O)N[C@@H](CC(C)C)C(=O)N[C@@H](CCC(=O)O)C(=O)N[C@@H](CCC(N)=O)C(=O)N[C@@H](CCC(=O)O)C(=O)N[C@@H](CCCCN)C(=O)N[C@@H](CCC(N)=O)C(=O)N[C@@H](CCCCN)C(=O)N[C@@H](CCC(=O)O)C(=O)N[C@@H](CCC(N)=O)C(=O)N[C@@H](CCCNC(=N)N)C(=O)N[C@@H](CCC(=O)O)C(=O)N[C@@H](CCC(N)=O)C(=O)N[C@@H](C)C(=O)N[C@@H](CCC(=O)O)C(=O)N[C@H](C(=O)N[C@@H](CC(N)=O)C(=O)NC(C)(C)C(=O)N[C@@H](CCC(N)=O)C(=O)N[C@H](C(=O)N[C@@H](CC(C)C)C(=O)N[C@@H](C)C(=O)N[C@@H](CCC(N)=O)C(=O)N[C@H](C(N)=O)C(C)C)[C@@H](C)CC)[C@@H](C)O)[C@@H](C)CC)[C@@H](C)CC)C(C)C)C(C)C
B3: SEQ ID NO 238 (peptide)
peptide: Ac-IVLSLD[dV]PIKLK([AEEA-AEEA-γGlu-C20 diacid])KILLEQEKQKKQREQAETN[Aib]QILAQV-NH2
SMILES: CC[C@H](C)[C@H](NC(C)=O)C(=O)N[C@H](C(=O)N[C@@H](CC(C)C)C(=O)N[C@@H](CO)C(=O)N[C@@H](CC(C)C)C(=O)N[C@@H](CC(=O)O)C(=O)N[C@@H](C(=O)N1CCC[C@H]1C(=O)N[C@H](C(=O)N[C@@H](CCCCN)C(=O)N[C@@H](CC(C)C)C(=O)N[C@@H](CCCCNC(=O)COCCOCCNC(=O)COCCOCCNC(=O)CC[C@H](NC(=O)CCCCCCCCCCCCCCCCCCC(=O)O)C(=O)O)C(=O)N[C@@H](CCCCN)C(=O)N[C@H](C(=O)N[C@@H](CC(C)C)C(=O)N[C@@H](CC(C)C)C(=O)N[C@@H](CCC(=O)O)C(=O)N[C@@H](CCC(N)=O)C(=O)N[C@@H](CCC(=O)O)C(=O)N[C@@H](CCCCN)C(=O)N[C@@H](CCC(N)=O)C(=O)N[C@@H](CCCCN)C(=O)N[C@@H](CCCCN)C(=O)N[C@@H](CCC(N)=O)C(=O)N[C@@H](CCCNC(=N)N)C(=O)N[C@@H](CCC(=O)O)C(=O)N[C@@H](CCC(N)=O)C(=O)N[C@@H](C)C(=O)N[C@@H](CCC(=O)O)C(=O)N[C@H](C(=O)N[C@@H](CC(N)=O)C(=O)NC(C)(C)C(=O)N[C@@H](CCC(N)=O)C(=O)N[C@H](C(=O)N[C@@H](CC(C)C)C(=O)N[C@@H](C)C(=O)N[C@@H](CCC(N)=O)C(=O)N[C@H](C(N)=O)C(C)C)[C@@H](C)CC)[C@@H](C)O)[C@@H](C)CC)[C@@H](C)CC)C(C)C)C(C)C
B4: SEQ ID NO 239 (peptide)
peptide: [NMeI]VLSLD[dV]PIKLK([AEEA-AEEA-γGlu-C20 diacid])KILLEQEKQK[Aib]QREQAETN[Aib]QILAQV-NH2
modifications: N-terminus assumed
SMILES: CC[C@H](C)[C@H](NC)C(=O)N[C@H](C(=O)N[C@@H](CC(C)C)C(=O)N[C@@H](CO)C(=O)N[C@@H](CC(C)C)C(=O)N[C@@H](CC(=O)O)C(=O)N[C@@H](C(=O)N1CCC[C@H]1C(=O)N[C@H](C(=O)N[C@@H](CCCCN)C(=O)N[C@@H](CC(C)C)C(=O)N[C@@H](CCCCNC(=O)COCCOCCNC(=O)COCCOCCNC(=O)CC[C@H](NC(=O)CCCCCCCCCCCCCCCCCCC(=O)O)C(=O)O)C(=O)N[C@@H](CCCCN)C(=O)N[C@H](C(=O)N[C@@H](CC(C)C)C(=O)N[C@@H](CC(C)C)C(=O)N[C@@H](CCC(=O)O)C(=O)N[C@@H](CCC(N)=O)C(=O)N[C@@H](CCC(=O)O)C(=O)N[C@@H](CCCCN)C(=O)N[C@@H](CCC(N)=O)C(=O)N[C@@H](CCCCN)C(=O)NC(C)(C)C(=O)N[C@@H](CCC(N)=O)C(=O)N[C@@H](CCCNC(=N)N)C(=O)N[C@@H](CCC(=O)O)C(=O)N[C@@H](CCC(N)=O)C(=O)N[C@@H](C)C(=O)N[C@@H](CCC(=O)O)C(=O)N[C@H](C(=O)N[C@@H](CC(N)=O)C(=O)NC(C)(C)C(=O)N[C@@H](CCC(N)=O)C(=O)N[C@H](C(=O)N[C@@H](CC(C)C)C(=O)N[C@@H](C)C(=O)N[C@@H](CCC(N)=O)C(=O)N[C@H](C(N)=O)C(C)C)[C@@H](C)CC)[C@@H](C)O)[C@@H](C)CC)[C@@H](C)CC)C(C)C)C(C)C

Target: human corticotropin-releasing factor 2a (CRF2a receptor) (human), Q13324
Sequence (Q13324 20-411): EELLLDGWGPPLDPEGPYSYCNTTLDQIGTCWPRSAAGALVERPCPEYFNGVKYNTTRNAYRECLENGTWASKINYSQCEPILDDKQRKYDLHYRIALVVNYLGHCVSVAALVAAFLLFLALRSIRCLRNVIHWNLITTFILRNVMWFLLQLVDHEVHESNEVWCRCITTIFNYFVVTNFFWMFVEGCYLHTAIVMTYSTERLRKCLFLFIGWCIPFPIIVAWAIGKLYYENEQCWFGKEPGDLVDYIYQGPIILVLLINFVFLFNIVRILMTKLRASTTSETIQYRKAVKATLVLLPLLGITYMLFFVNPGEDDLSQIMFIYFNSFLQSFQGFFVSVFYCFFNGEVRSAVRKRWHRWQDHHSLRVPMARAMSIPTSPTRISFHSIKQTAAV
Assay: cell-based or functional assay

B1 and B2 are within 1.5-fold of each other in EC50 [nM] (cAMP): 0.54 nM for the first, 0.41 nM for the second.

B3 and B4 are the same in EC50 [nM] (cAMP): 0.11 nM for the first, 0.11 nM for the second.
